Results as given in article PMC11358013, “FANCD2–FANCI surveys DNA and recognizes double- to single-stranded junctions”.

Columns and labels:
[1] = molecular target: FANCD2-ybbR-Cy3;FANCI-ybbR-Cy5 (Gallus gallus;Gallus gallus, UniProt Q68Y81;B0I564 1-1439;1-1338, |); experiment: EMSA; double-labelled D2-I, affinity comparable to unlabelled; EMSA: 50 mM HEPES pH 8.0, 75 mM NaCl, 1 mM TCEP, 20 nM DNA, 20-22 C; switchSENSE: 20 mM HEPES pH 8.0, 75 mM NaCl, 1 mM TCEP, 25 C; cryo-EM and single-molecule:; conditions: protein: recombinant;recombinant; copies: 1;1; label: 3' FAM on P1; blunt
FANCD2 WT;FANCI WT [2] = molecular target: T1, FANCD2 WT;FANCI WT (Gallus gallus;Gallus gallus, UniProt Q68Y81;B0I564 1-1439;1-1338, |); experiment: EMSA; unlabelled D2-I; EMSA: 50 mM HEPES pH 8.0, 75 mM NaCl, 1 mM TCEP, 20 nM DNA, 20-22 C; switchSENSE: 20 mM HEPES pH 8.0, 75 mM NaCl, 1 mM TCEP, 25 C; cryo-EM and single-molecule:; conditions: protein: recombinant;recombinant; copies: 1;1; label: 3' FAM on P1; blunt
FANCD2 WT;FANCI WT [3] = molecular target: T1, FANCD2 WT;FANCI WT; experiment: cryo-EM; stalled state; 24 bp duplex modelled; EMSA: 50 mM HEPES pH 8.0, 75 mM NaCl, 1 mM TCEP, 20 nM DNA, 20-22 C; switchSENSE: 20 mM HEPES pH 8.0, 75 mM NaCl, 1 mM TCEP, 25 C; cryo-EM and single-molecule:; conditions: protein: recombinant;recombinant; copies: 1;1; 29 bp duplex; strand 1 has 5' ssDNA 30 nt and 3' ssDNA 40 nt

T1 sequence (Q68Y81 whole entry, chain 1 of 2): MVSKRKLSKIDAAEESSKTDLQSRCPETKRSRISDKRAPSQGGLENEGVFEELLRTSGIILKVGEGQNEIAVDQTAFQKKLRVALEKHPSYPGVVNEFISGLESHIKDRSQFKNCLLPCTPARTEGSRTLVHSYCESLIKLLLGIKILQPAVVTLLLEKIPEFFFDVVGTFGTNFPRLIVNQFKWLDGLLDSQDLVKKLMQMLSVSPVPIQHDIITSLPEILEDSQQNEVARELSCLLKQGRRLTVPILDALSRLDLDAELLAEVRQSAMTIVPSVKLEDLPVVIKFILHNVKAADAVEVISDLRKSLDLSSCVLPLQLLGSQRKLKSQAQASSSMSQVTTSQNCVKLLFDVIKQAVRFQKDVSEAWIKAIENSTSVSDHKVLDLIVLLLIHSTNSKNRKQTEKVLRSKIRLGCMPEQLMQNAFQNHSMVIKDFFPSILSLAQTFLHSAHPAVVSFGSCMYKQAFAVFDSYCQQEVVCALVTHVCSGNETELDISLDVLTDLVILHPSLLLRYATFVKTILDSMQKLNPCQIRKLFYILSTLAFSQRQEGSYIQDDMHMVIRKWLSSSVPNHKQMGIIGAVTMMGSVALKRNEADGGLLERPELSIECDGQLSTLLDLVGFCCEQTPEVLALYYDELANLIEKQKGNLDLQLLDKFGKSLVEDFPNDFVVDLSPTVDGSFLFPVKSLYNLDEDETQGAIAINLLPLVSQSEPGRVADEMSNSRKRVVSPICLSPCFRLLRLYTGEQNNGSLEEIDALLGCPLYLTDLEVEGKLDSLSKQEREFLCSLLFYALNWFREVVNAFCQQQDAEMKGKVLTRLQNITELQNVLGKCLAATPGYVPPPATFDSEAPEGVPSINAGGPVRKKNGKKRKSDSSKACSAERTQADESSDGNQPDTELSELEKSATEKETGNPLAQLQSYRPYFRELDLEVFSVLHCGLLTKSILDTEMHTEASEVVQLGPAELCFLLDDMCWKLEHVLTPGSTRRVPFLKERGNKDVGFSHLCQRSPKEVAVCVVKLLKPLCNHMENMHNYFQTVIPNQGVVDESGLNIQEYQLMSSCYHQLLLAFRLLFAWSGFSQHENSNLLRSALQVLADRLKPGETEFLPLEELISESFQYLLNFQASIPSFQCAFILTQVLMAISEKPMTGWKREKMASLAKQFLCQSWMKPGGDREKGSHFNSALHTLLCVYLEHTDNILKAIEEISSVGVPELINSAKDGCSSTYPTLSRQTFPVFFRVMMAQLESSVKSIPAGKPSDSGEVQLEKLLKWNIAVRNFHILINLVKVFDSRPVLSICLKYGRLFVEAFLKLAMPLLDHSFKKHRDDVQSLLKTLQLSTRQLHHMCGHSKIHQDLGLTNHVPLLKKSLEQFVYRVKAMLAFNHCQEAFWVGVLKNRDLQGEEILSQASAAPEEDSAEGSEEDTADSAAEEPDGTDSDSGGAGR
T1 sequence (B0I564 whole entry, chain 2 of 2): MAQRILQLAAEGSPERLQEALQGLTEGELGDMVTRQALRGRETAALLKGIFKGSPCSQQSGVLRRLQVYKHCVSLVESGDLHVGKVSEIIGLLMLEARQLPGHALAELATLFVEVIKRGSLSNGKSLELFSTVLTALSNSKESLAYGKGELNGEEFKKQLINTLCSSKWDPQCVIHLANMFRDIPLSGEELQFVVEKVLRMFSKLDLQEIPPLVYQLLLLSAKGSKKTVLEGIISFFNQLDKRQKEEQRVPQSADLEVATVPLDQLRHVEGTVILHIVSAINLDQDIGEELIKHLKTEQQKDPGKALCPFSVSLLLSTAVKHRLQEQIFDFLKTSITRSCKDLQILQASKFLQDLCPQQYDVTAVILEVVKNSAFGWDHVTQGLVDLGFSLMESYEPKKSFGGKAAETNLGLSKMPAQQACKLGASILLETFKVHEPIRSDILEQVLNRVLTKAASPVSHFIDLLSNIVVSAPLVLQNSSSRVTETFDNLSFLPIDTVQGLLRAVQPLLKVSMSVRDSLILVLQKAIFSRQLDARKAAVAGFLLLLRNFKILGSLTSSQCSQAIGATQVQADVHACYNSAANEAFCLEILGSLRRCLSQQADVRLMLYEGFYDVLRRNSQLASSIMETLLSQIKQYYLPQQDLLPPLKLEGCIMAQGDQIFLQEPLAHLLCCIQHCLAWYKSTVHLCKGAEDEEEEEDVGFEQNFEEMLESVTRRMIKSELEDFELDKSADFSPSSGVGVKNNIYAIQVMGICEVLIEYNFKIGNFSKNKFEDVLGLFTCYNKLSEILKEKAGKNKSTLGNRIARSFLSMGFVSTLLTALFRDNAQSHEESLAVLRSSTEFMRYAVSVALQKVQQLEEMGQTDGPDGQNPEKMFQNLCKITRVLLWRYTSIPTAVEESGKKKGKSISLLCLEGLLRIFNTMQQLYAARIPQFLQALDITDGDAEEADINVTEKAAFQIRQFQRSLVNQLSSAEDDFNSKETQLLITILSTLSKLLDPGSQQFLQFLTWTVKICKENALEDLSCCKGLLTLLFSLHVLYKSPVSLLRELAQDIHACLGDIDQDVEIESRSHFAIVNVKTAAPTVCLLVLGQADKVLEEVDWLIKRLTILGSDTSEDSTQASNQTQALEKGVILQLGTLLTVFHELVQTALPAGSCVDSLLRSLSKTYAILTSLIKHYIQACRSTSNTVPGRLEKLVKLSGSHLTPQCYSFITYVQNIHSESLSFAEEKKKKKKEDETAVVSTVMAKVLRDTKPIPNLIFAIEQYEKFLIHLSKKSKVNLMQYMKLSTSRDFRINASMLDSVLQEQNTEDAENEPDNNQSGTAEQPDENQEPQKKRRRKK
FANCD2-ybbR-Cy3;FANCI-ybbR-Cy5, sequence (Q68Y81 whole entry, chain 1 of 2): as the sequence (Q68Y81 whole entry, chain 1 of 2) above
FANCD2-ybbR-Cy3;FANCI-ybbR-Cy5, sequence (B0I564 whole entry, chain 2 of 2): as the sequence (B0I564 whole entry, chain 2 of 2) above

B1: 44 bp dsDNA P1/P7 (FAM) (dsDNA)
DNA 1: ATCGATGTCTCTAGACAGCTGCTCAGGATTGATCTGTAATGGCC
DNA 2: GGCCATTACAGATCAATCCTGAGCAGCTGTCTAGAGACATCGAT
binding result [1]: binds
binding result (FANCD2 WT;FANCI WT [2]): binds

B2: ss-dsDNA J1/J2 (mixed)
DNA 1: TTTTTTTTTTTTTTTTTTTTTTTTTTTTTTATCGATGTCTCTAGACAGCTGCTCAGGATTGATCTGTAATTTTTTTTTTTTTTTTTTTTTTTTTTTTTT
DNA 2: ATCCTGAGCAGCTGTCTAGAGACATCGAT
binding result (FANCD2 WT;FANCI WT [3]): binds
